The assay concerns the target N-ethylmaleimide Sensitive Factor (NSF), Chinese hamster, full-length, His-tag cleaved, reassembled hexamer (Chinese hamster, UniProt P18708 1-744). The assay can be described thus: cryo-EM structure.

N-ethylmaleimide Sensitive Factor (NSF), Chinese hamster, full-length, His-tag cleaved, reassembled hexamer, sequence (P18708 whole entry): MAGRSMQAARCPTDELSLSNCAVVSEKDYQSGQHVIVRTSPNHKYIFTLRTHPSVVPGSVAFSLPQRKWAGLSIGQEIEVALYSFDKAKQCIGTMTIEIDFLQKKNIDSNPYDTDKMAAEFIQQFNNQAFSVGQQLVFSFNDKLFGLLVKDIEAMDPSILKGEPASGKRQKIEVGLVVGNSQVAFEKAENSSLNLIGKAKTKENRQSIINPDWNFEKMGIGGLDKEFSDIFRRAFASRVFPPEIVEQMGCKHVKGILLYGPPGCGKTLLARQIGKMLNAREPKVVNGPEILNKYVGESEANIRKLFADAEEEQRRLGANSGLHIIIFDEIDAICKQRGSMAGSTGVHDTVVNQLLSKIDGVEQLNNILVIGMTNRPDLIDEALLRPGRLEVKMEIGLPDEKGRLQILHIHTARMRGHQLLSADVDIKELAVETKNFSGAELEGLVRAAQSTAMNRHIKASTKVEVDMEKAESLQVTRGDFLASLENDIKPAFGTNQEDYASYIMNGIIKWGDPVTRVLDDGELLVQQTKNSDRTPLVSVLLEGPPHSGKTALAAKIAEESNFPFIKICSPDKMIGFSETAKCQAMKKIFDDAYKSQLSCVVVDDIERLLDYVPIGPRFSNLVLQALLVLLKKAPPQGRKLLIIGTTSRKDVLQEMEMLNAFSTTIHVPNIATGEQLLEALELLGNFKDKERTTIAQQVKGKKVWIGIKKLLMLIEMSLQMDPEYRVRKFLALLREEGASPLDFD

B1: αSNAP (Soluble NSF Attachment Protein alpha), rat, wild type (natural protein)
chain: MDTSGKQAEAMALLAEAERKVKNSQSFFSGLFGGSSKIEEACEIYARAANMFKMAKNWSAAGNAFCQAAQLHLQLQSKHDAATCFVDAGNAFKKADPQEAINCLMRAIEIYTDMGRFTIAAKHHISIAEIYETELVDVEKAIAHYEQSADYYKGEESNSSANKCLLKVAGYAAQLEQYQKAIDIYEQVGTSAMDSPLLKYSAKDYFFKAALCHFCIDMLNAKLAVQKYEELFPAFSDSRECKLMKKLLEAHEEQNVDSYTESVKEYDSISRLDQWLTTMLLRIKKTIQGDEEDLR
As for B1, the binding result is “binds”.

The values above are taken from paper PMC4320033 (Nature, 2015).
